The nature of this data set: label from the status in PepcDB records.
On to “MSSPARSPSVGGATPKQGARTPTRGIASQDVETPMRMGPGRAVRPSDNISLPPTSPGNISLPATSPARGLGANMSEIDLSSPLNYGTPSSMGSIRTPRSGIRGTPLRARPDIRTDKRIRQVAIGGGSGLEPIPEKGSETTDPVSESSQAPQLVVWGTNVVVSQCKSKFKSFIMRFIDPSAEQDEISENIDVNQPLYLQKLEEIHTLEEPYLNLNCAHLKTFDQDLYRQLICYPQEVIPGFDMAINEMFFERYPAALLEHQIQVRPFNADKTRNMRSLNPEDMDQLISISGMVIRSSNVIPEMREAFFSCNICSFSTTVEVDRGRINQPTLCTNCNTNHCFRLIHNRSEFTDKQLVKLQESPDDMAAGQTPHNVLLYAHNDLVDKVQPGDRVTVTGIYRATPLKTGGLSSSVKSVYKTHVDVVHFRKVDNKRLYEDEEGKDHIFPPERVELLQLLAKKPDIYDRLARAIAPSIYENDDIKKGILLQLFGGTKKKHATLGRQNFRSEIHLLLCGDPGTSKSQMLQYVFNLVPRSQYTSGRGSSAVGLTAYVTKDPETRQLVLQTGALVLADNGVCCIDEFDKMNDSTRSVLHEVMEQQTLSIAKAGIICQLNARTSILAAANPAESQWNKRKNIIDNVQLPHTLLSRFDLIFLVLDPQDEIFDKRLASHLVSLYYVTRHEEEDTMFDMSVLRDYIAYAREHLSPTLSDEAQQRLIQAYVDMRKVGAGRGQISAYPRQLESLIRLSEAHAKVRLSNQVELLDVEEAWRLHREALKQSATDPLSGKIDVGILTTGLSTAARKKRADLVAAIKENLKKKGKVLTVPYQKLFSDIKEGSQIMITREQFEDALKEVQDEGAIVVMGKNTIRIC”, for which the protein production entry is recorded as “failed”.
For the sequence “MSSPKISIIIPVYMAESYLHRCVDSIITQTFTDWELLLVDDGSPDHSGELCEKYASAYKSRIKAFHKPNGGVASAREFGMQQARGEYSIHVDPDDWIDSNTLEELYQQAVKEQADMVICDFMMEYPNRQIHNCQKPQLLDSSSFMHQLLQQERHGSLCNKLIRTELYHKYQLHFPEKMICWEDLYICCSILLHGCKLAYVPHALYHYDFYTNDNSMVRHTDMRGLQAQIDFCRLMQAKISPEYLPELNELKGITLITAFRNQLLNEQAIRSLFPEINDWYVTRYGHDYEKSNYYGLTLVLRGYNFKTARRRMFVAKFLVQIKNKITRMLLEHHHHHH”, the protein production entry is “not failed”.
As to “MSSPSEFPLSEAPQSARKGLLPIAMVLFSFTFFTGTMFAGGKLGMAFSFVDMLWVATLGNSLLALYAAALAFIASRSGLNTVLMGRFCFGEAGSRLSDFLLGFAELGWYAWGTATVAIVLVKLLGLADGFGMPLMVLFGLGFSITAIIGFKGLDLLSRVSVPLMFVLLLVSMYIATRDAGGFAGLAAVVPHETMTFSAAVTMVFGTFASGATQATNWTRLARSGRVAVIASGVAFLLGNGLMVVAGAWCAMVYQQADIVDVMMLQGLSFAAVVMLCLNLWTIQGPTIYNVSAAACHLLRSERRRTATLVAAGVGIVLAMGGMYEMLIPFLVLLGSIIPPVGGVIMADFWYRHRGKYPPLCTANLPRYNLTGLFAYAVGAVLAYASPWVAPLVGIAASAVCYIVILELGARRRAPGQAGVEP”, the protein production result was “failed”.
The result for “MSSPSRTVTLPDIMCPKCIKCGSERTHHSRVRPSERTLSMLFLRPIRCRQCKERFWVKNSNAFLALGGVLFIGALLITTVWLIIEHNMADPYAGSAPEIGTEDPADSVARGTSKSQNGQEALSAPAPGTRGTHDVTQSPGSIPSSAPARNPLEDHRFTVRLYQEAANNGDADSQYKLGLLYLTGNGALQDFAEAAKWLQLAAEQGYGPAQYELGLIYRNGYGLPTDHVQSYVWLNLAAAAGVQQAMGARDEVMRALSSKQLAQAQKISREWLAARTGPESGKEADRVESAHPRRK” reads “failed”; that for “MSSRNTLGNDEPMNQEKEGVESKDTPRTETKGVEKKHSVLVKQDWLPSDYAQYVDEKILNIGFEPDTFQRQAFYLLSRASSVFVSAHTSSGKTLVAEYAISLSQIHGTRTIYTSPIKALSNQKYHDFKQKYDDVGIITGDVQVNPAAKCLVMTTEILRNLVYRNGDLLRDTEFVVFDEVHYINDSERGVVWEECIIMIPRHINFIMLSATIPNSLEFSEWVGRTKDKTIYVISTSKRAVPLEHVIYCDWCVYSIDDGGGKRNASNFKGDLVPFSKKTRPTGKFKILDVANFVVKKKLTPAIFFCFSKRKCEDYAEILRTLNLNDTKSREEVKLFLSEATRCLSPEDRNLPQVLSMSSMVLNGVAVHHGSLLPFVKECVELLFSMNLVKLLIATETFAMGVNMPAKCCVFLSLSKIDGGVFRYISSGEYIQMSGRAGRRGMDAVGTVMIADPKMPSLSTIQGIIHGTPFSLSSQFRLSFGLILISLRSNIRVEDLMRRSYGEHRSQRNYERDMKKLSELESVEEDVCNVCGDLSKYIGAVEEICARNWKLIAKHHVLKEGSRVLLKNNAVGTVERVSGATVFLKQKDEALDNGTPIPTKFLAYPLGTRKPLDRSKVTFENIFCVLDGEKALWNYETANVMDVLEIRKIKSLYDYLLSEQQVCREFDQHYSNALRVHCKRKEMNDIKIRYNVCSLGMIDEYNRRMEFLKKKGFVEEMITIKGRAAAEIHTVNEVLVVEMIFSNEFRQMDGRKIVSLMSSMIHEEADGQELGKALYDECKRMDECFRELSRDLDELMIPPFTPLNFSLVDAVYDWCNGSSLGKIVSRYNVLEGTFVRLVLRLEECCRELISVSTMIGDKSLEEKIGDASASMKRDIIFLPSLYL”, “failed”.
The result for “MSSRSHARPEAVTRIASLAECGETVACMACARYPSCLAHLRLRMKRHFSMLRDFQLADWFTLANAFCGTGAVFAAMRFLQEEHRGDLLLGMALIPLAFVFDALDGHVARWRKASSTLGRELDSLADVISFGVAPAALGYACGMRGGWDWLVLSYFVCCGVSRLARYNVTAEEIAGEADKVPYFEGTPIPTSLLLVILLAVAASIGHIGETLWWGQWQLGPWQFHPLVLLFAVSGSLMISKTLRIPKL” reads “failed”; that for “MSSSHLAERHAFSDLSLLSEALAQSVTVTLRNAIERYGKASLVVPGGHTPVVYLPRLAQMDLPWQQVFITLSDERWVEPTSEQSNERLVREHFLQHMQQQPHFIALKTGHIHPDQAITDIDARLAELPQPFSLVILGLGEDGHIASLFPGMALNPDTTSLCQTATPPAAPSLRISLSLHALINSDRIILVITGKEKRQLIDRLIESPDQNIPFVRLMQFKPVELFETD”, “not failed”; that for “MSSSLMTSSGFRFLFPIALLGMVSVGMGNIIQMTQSNWGIAANLPYILLGCALVLCYSFKQGRESMVCLSMLVAYFVIQHRLQVPLNSGTALLELTILATLLPVSFLTVFLFNKDGFDSKAMFIYVLMLVMFILWSYIILAYYVDGGFEQWTSGILFIVPSVSKLPFILVLYCVGIVCFLGILLLKTNKIIHAMTYSAMALASATFIFFDVQYISSTMFTLTGLLIIIYSTSASHQLAFTDSLTQIPSRRALDLDLKHMGRKFTIAMLDVDHFKKFNDTYGHDIGDDVLKMVASRLMKTRGGAKVYRFGGEEFTMVFKGKNVEDCRQYIEEARKAIAEYEMILRDKASRPDDHKQGQQNRGTEDMQRESVFVTASFGAADSRNGREPAEVIKLADAALYKAKKAGRNCTRVNQN”, “failed”.
The result for “MSSTALEMASRFVNRSPFNRWLGMSVLEAGEQGIVLGIKWREELISSPEIRSTHGGILATLVDAAGDYAVALKTGHPVPTMDMHVDYHRVATPGDLRAEGQVIHFGKRFATAHARVLDMDGNLVASGRALYLIRAPQPGAAQGAA” reads “failed”; that for “MSSTKRQKNRVLVKLKKRKVRKDKIEKWAELALSALGLNNVELSVYITDDQEIRELNKTYRKKDKPTDVLSFPMGEEFGGYKILGDVVISQDTAERQARELGHSLEEEVKRLIVHGIVHLLGYDHEKGGEEEKKFRELENYVLSKLSKAL”, “not failed”.
As for “MSSTLRFHVLGRGAALPRAVAPYFVLRTDNWDDFGHRVQFHLILIVSGAPEKRIGSLKVLQRTSDKGEAMMVATDTELPSKFVELDDTFVSLGQDDDFYKKLHEALGDRAGEVLDALRDIAWRPAFASDFEPTPAFRNAMMRENGAQRARRFGRAWALGEQITERPAFDYVGTIEGADIKVEGEFDFSATDPVPGRIVGLIGRNAVGKTRYLASLGSDLAQISRRSAEALEAREARFPGGRPLFTRIIAISYSAFDRFKRPPMDSSSSYVYCGIRNDRGGLSRSALIDRYRLNQVRIRERGEQRSWMRHMKTILGDQGAQLTASLEEEIRSDSTDDSALSSLSSGQSILAHFVTALLAWIQPNSLVLFDEPETHLHPNAVASLFLVLSQVLQEFDSYAVIATHSPVVIQEIPAKRVLVFRREGNVTIAEPLLLESFGESVTELTRHVFETGEVESLYKRTLRELAAEDTVEDVLARFELGLSLSAQAYLLAQYSKKAGGRTLEHHHHHH”, the protein production entry is listed as “failed”.
The result for “MSSTLWIFYDQYVQRATVDGLPTFIGPGEQATLRISSLKNDIQVRDQDGQCLIMTDGEELHTLPSGESCELTIDGKPYSFLYVGEAPSEKKYYMGHANLVTISNEPSANIVLPSDIEMDCTLLCERKEWTLYPKEGTQAPYVNGRKVSIPTQIVDGDEMLFGRVLLKIIEGNILVVESNETYETTLTQVETPTSLMQQQYPIYRRTPRMIYEQPTDKVEFSMPSEEIDDVGRPLWMILLPPVAIIVIMVTISIVFQRTWMLFMSVPIMTVMAVVATTMFFREKKKRKQKEEKRKRVYSRYLEVKRDELQALADAQRHALMYHFPTFEQMKNKARRVSSRIWERTIDNNDFLDIRIGRSSVPASFELNQPSDELSNRDRDELMDDFDRFREKYSHLENAPLRLSVARGALGYVGKPSIVEREVSQIIGQLAFAHSYHDLRFVAILNEEQRKKWEWMNWLPHFQLPGTEAKGFIYDEKACDHILNPLYHMLRERDLAQKETVEKKREKKRFLPHIVFFVANRSLIAEHGIMEYLEGKDKELGFTVIFLTDVAQNLNEHVHTIVKAVNRNEGEIVLLRNISIHKRFQFDAYDPASNENYARMLPSLHHQQGMTRSIPDMVSFMEMFPGVIQAKDLEIKKRWQTNDSTKSLAVPIGLKAKDELLELDAHEKMHGPHGLLAGTTGSGKSEFLQTYILSLAVNYHPHEVAFLLIDYKGGGMAQPFKGMPHLLGVITNIAESENFSARALASIRSELKKRQRLFDEHTVNHINDYTELYKAGTAKEPMPHLFIISDEFAELKNEEPEFIKELVSAARIGRSLGVHLLLATQKPSGVVDGQIWSNSRFRIALKVQNATDSREILKNEDAAYIKETGRGYLQIGSNEQYDLFQSAWSGAQYLRSAHDGEEEIAYVTDLGLKLVSRAEIKEDREQESITEIEAVVNEIAATTDELAIVPAKSPWLDPLEERIFYEATSSEDEAQAFPFALADDPENQRQFPICYDWGKSGNLMIFGTSGYGKSTTLLTLLLAFAEKRSPEQANYYVLDFGNGALLPLRQLRHTGDYIKMDEGRKLEKLIDYIEKEMERRSELFMEREVSNISVYNEVSDEPLPSIFIVIDNYDILPEEFSDQAPAFTRFARDGQSRGIYVFATVTARNAVKPVLLNSMNMKICHYMIEKTDLTSLLGRVPFAIESVPGRMIVAKDKNWLAHTYLPAKGENDFEVIENVKARIQTINDRYEDSKLPKSMAMLPKTLTLTGLRERIKEEPRLGIPLGLNEETVQPVYIDQDAGAHMVIAGEPKRGKSNVLKVILSFYFETDVEKIVLCDGVDRPLFDFSRKDKALYPTNAEELQHAVEELKQVMEERRMQYDEALQAGTEIPQFRPYLFVIDSFNEFKKMLGVSKEPAFAEMMQLYGHLEFRVIVAADHKDVSLGRGGVMGELKSARQLVLLVKKSAQSLVSFTHDRTEKLEDGFGYHVVNGRDTKIKIPEVVKEEAFIHS” reads “failed”; that for “MSSTTNPSTHHTSTIGAIGAPSRRNTELALLVFAVLIPVFAYANVGLAINDEVPAGLLSYGFGLGLLAGVGHLVVRKFAPYADPLLLPLATLLNGLGLVAIWRLDQSDRLQSSKLFVEAAPRQLMYSALGVALFVAVLVFLRDHRVLQRYTYISMAGALVLLLLPLVPGLGHDNFGAKIWIKIPGLGTLQPGEFAKIVLAVFFAGYLMVKRDALALASRRFMGLYLPRGRDLGPIIVVWIISILILVFETDLGTSLLFFGMFVIMLYVATERTSWIVFGLLMSAVGAVGVASFESHVQQRVQAWLDPMHEYELSRQGVFGHTEQSMQALWAFGSGGTLGSGWGQGNSDLIGFAANSDFILATFGEELGLAGLMALLLLYALIVERGVRTALAARDPFGKLLAIGLSGAFALQVFVVAGGVMGLIPLTGMTMPFLAYGGSSVIANWALIGILLRISDTARRPAPAAPANPDAEMTQVVRP”, “failed”.

The values above are taken from a protein production outcome set (Wang et al. 2014).
